Results from publication PMC5823917, “Sumoylation regulates FMRP-mediated dendritic spine elimination and maturation” (Nature Communications, 2018).

Target: the molecule itself
Experiment: pull-down; GST-FMRP (1-160) 1 ug with 2 ug His-FMRP (1-160), 2 h at 4 °C in dimerization buffer (50 mM Tris-HCl pH 8, 150 mM NaCl, 2.5 mM MgCl2, 0.5% NP40, 0.5 mM DTT); glutathione beads, five washes; free GST as control

B1: FMRP (1-160 aa), N-terminal domain, GST-tagged and His-tagged copies (domain or fragment)
chain: not shown
notes: FMRP, N-terminal domain, residues 1-160; Two differently tagged copies of one fragment: GST-FMRP (1-160) held on glutathione beads and His-FMRP (1-160) in solution; each copy carries one tag, not both; also called GST-FMRP (1-160); His-FMRP (1-160 aa); source: E. coli BL21(DE3), purified (glutathione gel for GST-FMRP, Nickel resin for His-FMRP)
Does B1 bind?
Result: binds
